Laboratory results from patent US20240101686A1 (SIMCERE ZAIMING PHARMACEUTICAL, published 2024).
Read-outs that look alike come from different tables or passages of the source.

Legend:
[1] = molecular target: T1, human EGFR-His-tagged fusion protein (human, UniProt P00533 25-645)
T1 construct: extracellular domain; bought; also called human EGFR protein; human EGFR-His protein

[2] = molecular target: T1, human EGFR-His-tagged fusion protein; remark: listed apart in the source
[3] = molecular target: T1, human EGFR-His-tagged fusion protein; remark: listed apart in the source
[4] = molecular target: T2, pepvIII polypeptide (human)
T2 construct: synthetic peptide (GL Biochem); also called Leu25-His37 polypeptide
T2 peptide: LEEKKGNYVVTDH

[5] = molecular target: T1, human EGFR-His-tagged fusion protein; remark: listed apart in the source
[6] = molecular target: T1, human EGFR-His-tagged fusion protein; remark: listed apart in the source
[7] = molecular target: T1, human EGFR-His-tagged fusion protein; remark: listed apart in the source
[8] = molecular target: T1, human EGFR-His-tagged fusion protein; remark: listed apart in the source
[9] = molecular target: T1, human EGFR-His-tagged fusion protein; remark: listed apart in the source
[10] = molecular target: T3, human EGFRvIII-His tag protein (extracellular domain Leu25-Ser378) (human, UniProt P00533 298-645)
T3 construct: Made in HEK293E cells, purified on nickel column; also called human EGFRvIII protein; EGFRvIII protein; not shown: His tag

[11] = molecular target: T3, human EGFRvIII-His tag protein …; remark: listed apart in the source
[12] = molecular target: T3, human EGFRvIII-His tag protein …; remark: listed apart in the source
[13] = molecular target: T4, murine EGFR protein (murine, UniProt Q01279 25-647)
T4 construct: Bought protein

[14] = molecular target: T4, murine EGFR protein; remark: listed apart in the source
[15] = molecular target: T3, human EGFRvIII-His tag protein …; remark: listed apart in the source
[16] = molecular target: T3, human EGFRvIII-His tag protein …; remark: listed apart in the source
[17] = molecular target: T4, murine EGFR protein; remark: listed apart in the source
[18] = molecular target: T4, murine EGFR protein; remark: listed apart in the source
[19] = molecular target: T3, human EGFRvIII-His tag protein …; remark: listed apart in the source
[20] = molecular target: T4, murine EGFR protein; remark: listed apart in the source
[21] = molecular target: T3, human EGFRvIII-His tag protein …; remark: listed apart in the source
[22] = molecular target: T4, murine EGFR protein; remark: listed apart in the source
[23] = molecular target: T4, murine EGFR protein; remark: listed apart in the source
[24] = molecular target: T4, murine EGFR protein; remark: listed apart in the source
[25] = molecular target: T3, human EGFRvIII-His tag protein …; remark: listed apart in the source
[26] = molecular target: T5, monkey EGFR protein (cynomolgus monkey, UniProt P55245 25-645 (rhesus entry))
T5 construct: Bought protein (SB 90285-C08H); also called cynomolgus monkey EGFR

[27] = molecular target: T6, murine EGFR protein (murine, UniProt Q01279 25-647); remark: listed apart in the source
T6 construct: Bought protein

[28] = molecular target: T7, human EGFR protein (human, UniProt P00533 25-645)
T7 construct: also called human EGFR-His; human EGFR-ECD protein; not shown: His tag

[29] = molecular target: T8, human EGFRvIII-His tag protein (human, UniProt P00533 298-645)
T8 construct: Made in HEK293E, purified on nickel column; also called human EGFRvIII protein; not shown: His tag

[30] = molecular target: T9, monkey EGFR protein (commercial, SB, catalog number 90285-C08H) (monkey); experiment: ELISA, coated monkey EGFR protein, antibody 0.01 nM
T9 construct: Bought protein used to coat ELISA plates

[31] = molecular target: T9, monkey EGFR protein (commercial, SB, …); experiment: ELISA, coated monkey EGFR protein, antibody 0.001 nM
[32] = molecular target: T10, cynomolgus monkey EGFR on HEK293T-monkey EGFR cells (cynomolgus monkey, UniProt P55245 25-1210 (rhesus entry)); experiment: FACS, HEK293T-monkey EGFR cells (specificity assay)
[33] = molecular target: T9, monkey EGFR protein (commercial, SB, …); experiment: ELISA, coated monkey EGFR protein, antibody 10 nM
[34] = molecular target: T9, monkey EGFR protein (commercial, SB, …); experiment: ELISA, coated monkey EGFR protein, antibody 0.0001 nM
[35] = molecular target: T9, monkey EGFR protein (commercial, SB, …); experiment: ELISA, coated monkey EGFR protein, antibody 1 nM
[36] = molecular target: T9, monkey EGFR protein (commercial, SB, …); experiment: ELISA, coated monkey EGFR protein, antibody 100 nM
[37] = molecular target: T10, cynomolgus monkey EGFR on …; experiment: FACS, HEK293T-monkey EGFR cells
[38] = molecular target: T9, monkey EGFR protein (commercial, SB, …); experiment: ELISA, coated monkey EGFR protein, antibody 0.1 nM
[39] = molecular target: T9, monkey EGFR protein (commercial, SB, …); experiment: ELISA, coated monkey EGFR protein, antibody 0 nM (blank)

B1: 30D8-hIgG1 (antibody, V domains shown)
VH: EVQLVESGGGLVKPGGSLRLSCEASGFTFSDAWMSWVRQAPGKGLEWVGRIKSKTDGGTTDYVVPLNGRFIISRDDSRNTLYLQLNNLKTEDTAVYYCTTVPGSYGYWGQGTLVTVSS
VL: DIVMTQSPLSLPVTPGEPASISCRSSQSLLHNKRNNYLDWFLQKPGQSPQLLIYLASNRASGVPDRFSGGGSGTDFTLKISRVEAEDVGVYYCMQAQQTPITFGQGTRLEIK
- OD450 [1]: 0.07
- OD450 [2]: 0.06
- OD450 [3]: 0.05
- binding result [4]: binds
- OD450 [5]: 0.05
- OD450 [6]: 0.09
- OD450 [7]: 0.05
- OD450 [8]: 0.05
- OD450 [9]: 0.05

B2: 30D8-hIgG1 (antibody, V domains shown)
VH: EVQLVESGGGLVKPGGSLRLSCEASGFTFSDAWMSWVRQAPGKGLEWVGRIKSKTDGGTTDYVVPLNGRFIISRDDSRNTLYLQLNNLKTEDTAVYYCTTVPGSYGYWGQGTLVTVSS
VL: DIVMTQSPLSLPVTPGEPASISCRSSQSLLHNKRNNYLDWFLQKPGQSPQLLIYLASNRASGVPDRFSGGGSGTDFTLKISRVEAEDVGVYYCMQAQQTPITFGQGTRLEIK
notes: Variable regions cloned with human IgG1 heavy chain constant region and human light chain constant region
- OD450 [10]: 0.15
- OD450 [11]: 1.89
- OD450 [12]: 0.07
- OD450 [13]: 0.06
- OD450 [14]: 0.06
- OD450 [15]: 2.61
- OD450 [16]: 2.52
- OD450 [17]: 0.06
- OD450 [18]: 0.06
- OD450 [19]: 2.25
- OD450 [20]: 0.1
- OD450 [21]: 0.07
- OD450 [22]: 0.06
- OD450 [23]: 0.06
- OD450 [24]: 0.06
- OD450 [25]: 0.69

B3: 30D8-hIgG1 (antibody, V domains shown)
VH: EVQLVESGGGLVKPGGSLRLSCEASGFTFSDAWMSWVRQAPGKGLEWVGRIKSKTDGGTTDYVVPLNGRFIISRDDSRNTLYLQLNNLKTEDTAVYYCTTVPGSYGYWGQGTLVTVSS
VL: DIVMTQSPLSLPVTPGEPASISCRSSQSLLHNKRNNYLDWFLQKPGQSPQLLIYLASNRASGVPDRFSGGGSGTDFTLKISRVEAEDVGVYYCMQAQQTPITFGQGTRLEIK
notes: anti-EGFRvIII control
- binding result [26]: no binding (tested: 200 nM (highest antigen concentration))
- binding result [27]: no binding (tested: 200 nM (highest antigen concentration))
- binding result [28]: no binding (tested: 30 µg/mL (highest EGFR concentration))
- Kd [29]: 11.7 nM
- koff [29]: 0.00229 s⁻¹
- kon [29]: 197000 M⁻¹ s⁻¹

B4: 30D8-hIgG1 (antibody, V domains shown)
VH: EVQLVESGGGLVKPGGSLRLSCEASGFTFSDAWMSWVRQAPGKGLEWVGRIKSKTDGGTTDYVVPLNGRFIISRDDSRNTLYLQLNNLKTEDTAVYYCTTVPGSYGYWGQGTLVTVSS
VL: DIVMTQSPLSLPVTPGEPASISCRSSQSLLHNKRNNYLDWFLQKPGQSPQLLIYLASNRASGVPDRFSGGGSGTDFTLKISRVEAEDVGVYYCMQAQQTPITFGQGTRLEIK
notes: Anti-EGFRvIII control
- OD450 [30]: 0.06
- OD450 [31]: 0.06
- Max_MFI [32]: 314
- OD450 [33]: 0.08
- OD450 [34]: 0.05
- OD450 [35]: 0.06
- OD450 [36]: 0.19
- Max MFI [37]: 77
- binding result [37]: no binding
- OD450 [38]: 0.06
- OD450 [39]: 0.06
